Reference: publication PMC12809092 (2025)

Assays:
[1] = target: T1, PLXNA1-LBD, recombinant human plexinA1 ligand-binding domains (human, UniProt Q9UIW2 27-710); experiment: BLI
T1 chain: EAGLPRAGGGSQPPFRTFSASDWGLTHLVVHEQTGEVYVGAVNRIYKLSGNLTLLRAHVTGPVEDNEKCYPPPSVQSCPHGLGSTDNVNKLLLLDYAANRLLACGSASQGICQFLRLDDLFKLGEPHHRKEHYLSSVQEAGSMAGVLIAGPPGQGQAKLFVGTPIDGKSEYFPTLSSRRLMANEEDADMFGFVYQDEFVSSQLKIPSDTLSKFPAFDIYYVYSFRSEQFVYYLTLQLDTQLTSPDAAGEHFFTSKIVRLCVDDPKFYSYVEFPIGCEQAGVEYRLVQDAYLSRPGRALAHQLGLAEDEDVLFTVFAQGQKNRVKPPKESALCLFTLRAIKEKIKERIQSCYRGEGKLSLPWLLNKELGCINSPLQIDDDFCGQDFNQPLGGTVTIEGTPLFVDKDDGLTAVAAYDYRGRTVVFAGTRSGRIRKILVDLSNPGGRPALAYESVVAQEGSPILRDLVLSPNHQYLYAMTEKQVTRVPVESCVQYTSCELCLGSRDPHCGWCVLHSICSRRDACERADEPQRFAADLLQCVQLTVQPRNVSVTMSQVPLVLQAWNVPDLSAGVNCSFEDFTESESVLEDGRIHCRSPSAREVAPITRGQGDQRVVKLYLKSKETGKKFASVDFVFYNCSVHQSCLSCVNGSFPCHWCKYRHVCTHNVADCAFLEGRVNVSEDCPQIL

[2] = target: PLXNA1-ECD, recombinant human plexinA1 full extracellular domains (human, UniProt Q9UIW2 27-1244); experiment: BLI

B1: aPLXNA1-19-43 Fab (Fab, V domains shown)
VH: EVQLQQSGPELVKPGASVKISCKASGYKFTENYMDWVKQSHGESLEWIGDISPDNGDTSYNQKFRDKATLTVDKSSSTAYMELRSLTSEDSAVYYCAQIIYYDYVGYALDYWGQGTSVTVSS
VL: QIVLTQSPAILSASPGEKVTMSCSVSSSITYMHWYQQKPGTSPKRWIYDTSKLASGVPARFSGSGSGTSFSLTISNMEAEDAATYYCHQRSSYPYSFGGGTKLEIK
B1 showed a koff [1] of 0.000252 s⁻¹ and a koff [2] of 0.000111 s⁻¹.
